These results are taken from patent US20220403029A1 (KYMAB, published 2022).

Where two headings read alike, the source gives them in different places. A value given as a limit tells only on which side of the number the result lay.

Test [1] addresses T1, human ICOS-mFc (Chimerigen) (human, UniProt Q9Y6W8 21-141).
T1 construct: bought; also called human ICOS receptor; not shown: mouse Fc of a bought reagent
T1 sequence (looked up): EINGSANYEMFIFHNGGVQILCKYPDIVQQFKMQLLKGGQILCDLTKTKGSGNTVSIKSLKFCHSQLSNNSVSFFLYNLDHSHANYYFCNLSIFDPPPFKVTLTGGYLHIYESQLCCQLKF
In words: HTRF neutralisation of human B7-H2 binding to human ICOS-mFc, hamster IgG in the IgG4.PE series; SD 3.8 (n = 4).

For test [2], the target named is T2, mouse ICOS-mFc (Chimerigen) (mouse, UniProt Q9WVS0 21-144).
T2 construct: bought; also called mouse ICOS receptor; not shown: mouse Fc of a bought reagent
T2 sequence (looked up): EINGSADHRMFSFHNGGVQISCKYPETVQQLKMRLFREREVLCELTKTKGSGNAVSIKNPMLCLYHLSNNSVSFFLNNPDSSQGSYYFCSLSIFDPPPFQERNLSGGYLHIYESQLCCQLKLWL
In words: HTRF neutralisation of mouse B7-H2 binding to mouse ICOS-mFc, IgG1 series; same result as the 6th table, row 13, column 3 with more digits.

In test [3] the target is T1, human ICOS-mFc (Chimerigen). In words: HTRF neutralisation of human B7-H2 binding to human ICOS-mFc, hamster IgG in the IgG1 series; SD 0.3 (n = 4).
The target of test [4] is T2, mouse ICOS-mFc (Chimerigen). In words: HTRF neutralisation of mouse B7-H2 binding to mouse ICOS-mFc, hamster IgG in the IgG1 series; SD 0 (n = 3).
Test [5] shares this target. In words: HTRF neutralisation of mouse B7-H2 binding to mouse ICOS-mFc, hamster IgG in the IgG4.PE series; SD 0.1 (n = 3).
Test [6] deals with T3, human ICOS expressed on cells (human, UniProt Q9Y6W8 21-199).
T3 construct: also called hICOS CHO; Human ICOS CHO
T3 sequence: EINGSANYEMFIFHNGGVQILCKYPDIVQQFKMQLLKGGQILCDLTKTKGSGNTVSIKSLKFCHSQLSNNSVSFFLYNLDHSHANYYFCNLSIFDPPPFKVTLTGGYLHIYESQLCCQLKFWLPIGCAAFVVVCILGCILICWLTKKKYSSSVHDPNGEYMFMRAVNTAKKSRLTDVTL
In words: FACS screen on CHO-S cells expressing human ICOS. As to the method:
(§1) BCT supernatants and HEK293 expressed antibodies from Example 5 were tested for ability to bind to CHO-S cells expressing human or mouse ICOS.
(§2) CHO-S cells expressing human or mouse ICOS (see Example 2), were diluted in FACS buffer (PBS 1% BSA 0.1% sodium azide) and were distributed to a 96-well, V-bottom plate (Greiner) at a density of 1×10⁵ cells per well. Cells were washed with 150 μL PBS and centrifuged at 300 g for 3 minutes. For supernatant screening, supernatant was aspirated and 150 μL PBS added. This wash step was repeated. 30 μL BCT undiluted supernatant or 50 μL of reference antibody or control antibody diluted to 5 μg/ml in BCT media was added to the washed cells. Cells were incubated at 4° C. for 60 minutes. 150 μL FACS buffer was added and cells washed as described above. To detect antibody binding, 50 μL of goat anti-mouse APC (Jackson ImmunoResearch) diluted to 2 μg/ml in FACS buffer was added to cells. Cells were incubated 4° C. for 60 minutes. Cells were washed twice with 150 μL FACS buffer, centrifuging at 300 g for 3 minutes after each wash step and aspirating supernatant. Cells were fixed by addition of 25 μL 4% paraformaldehyde for 20 minutes at room temperature. Cells were washed once as above and resuspended in FACS buffer for analysis. APC signal intensity (geometric mean) was measured by flow cytometry using a BD FACS Array instrument. Data were plotted as geometric mean values without further calculation.

Test [7] deals with T4, mouse ICOS expressed on CHO-S cells (mouse, UniProt Q9WVS0 21-141).
T4 construct: full length mouse ICOS (NCBI NP_059508.2) was transfected; also called mICOS CHO; Mouse ICOS CHO
T4 sequence: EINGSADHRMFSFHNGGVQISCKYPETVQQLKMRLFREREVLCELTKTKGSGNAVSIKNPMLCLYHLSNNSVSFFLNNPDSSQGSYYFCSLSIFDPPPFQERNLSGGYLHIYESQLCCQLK
In words: FACS screen on CHO-S cells expressing mouse ICOS. The protocol: as §1, §2

Test [8] has as its target T4, mouse ICOS expressed on CHO-S cells. In words: flow cytometry on CHO-S cells expressing mouse ICOS.
Test [9] concerns the target T3, human ICOS expressed on cells. In words: flow cytometry on CHO-S cells expressing human ICOS.
Test [10] shares this target. In words: cell-based or functional assay.
The target is the same in test [11]. In words: cell-based or functional assay. This is another data set of the same source.
Test [12] has the same target. In words: cell-based or functional assay. The source holds these as a separate data set.

B1: Anti-ICOS antibody C398.4A (hamster IgG) (antibody, V domains shown)
VH: EVQLVESGGGLVKPAGSLTLSCVASGFTFSDYFMHWVRQAPGKGLEWVAVIDTKSFNYATYYSDLVKGRFTVSRDDSQGMVYLQMNNLRKEDTATYYCTATIAVPYYFDYWGQGTMVTVSS
VL: DIQMTQSPSSLPASLGDRVTINCQASQDISNYLSWYQQKPGKAPKLLIYYTNLLADGVPSRFSGSGSGRDYSFTISSLESEDIGSYYCQQYYNYRTFGPGTKLEIK
For B1, the 50% inhibitory concentration (IC50) in [1] was 2.8 nM; in [2], 0.14 nM; in test [3] it was 1.2 nM; in [4] it was 0.1 nM; in [5], 0.2 nM.

B2: STIM002-B as screened from BCT (mouse IgG1 constant region) (antibody, V domains shown)
VH: QVQLVQSGGEVKKPGASVKVSCKASGYTFTSYGFSWVRQAPGQGLEWMGWISAYNGNTNYAQKLQGRVTMTTDTSTSTAYMELRSLRSDDTAVYYCARSTYFYGSGTLYGMDVWGQGTTVTVSS
VL: DIVMTQSPLSLPVTPGEPASISCRSSQSLLHSDGYNCLDWYLQKPGQSPQLLIYLGSTRASGFPDRFSGSGSGTDFTLKISRVEAEDVGVYYCMQALQTPCSFGQGTKLEIK
notes: as m28
Regarding B2, the “fold above average geomean of hybrid control” value in test [6] and in test [7] was > 4 fold throughout.

B3: CL-61091 (IgG1 format) (antibody, V domains shown)
VH: QVQLMQSGTEVKKPGASVKVSCKTSGYTFTTYGITWVRQAPGQGLEWMGWISAYSGDTDYAQKFQGRVTVTTDTSTNTAYMELRSLKSDDTAVYYCARSSGWPHHYGMDVWGQGTTVTVSS
VL: DIVMTQSPLSLPVTPGEPASISCRSSQSLLHSNGFNYFDWYLQKPGQSPQLLIFLVSNRASGVPDRFSGSGSGTDFTLKISRVEAEDVGIYYCMQALQTPLTFGGGTKVEIK
notes: synthesised and expressed in human IgG1 format in HEK cells; tested as supernatant
Take B3: the “fold above average geomean of negative control” value in [8] and in test [9] was > 10 fold throughout.

B4: STIM001 as screened from BCT (human V regions on mouse IgG1 constant region) (antibody, V domains shown)
VH: QVQVVQSGAEVKKPGASVKVSCKASGYTFSTFGITWVRQAPGQGLEWMGWISAYNGDTNYAQNLQGRVIMTTDTSTSTAYMELRSLRSDDTAVYYCARSSGHYYYYGMDVWGQGTTVTVSS
VL: DIVMTQSPLSLPVTPGEPASISCRSSQSLLHSNEYNYLDWYLQKPGQSPQLLIFLGSNRASGVPDRFSGSGSGTDFTLKITRVEAEDVGIYYCMQSLQTPLTFGGGTKVEIK
On to B4, for which the “fold above average geomean of hybrid control” value in test [6] and in test [7] was > 4 fold each time.

B5: STIM001 human IgG1 (antibody)
heavy: not shown
light: DIVMTQSPLSLPVTPGEPASISCRSSQSLLHSNEYNYLDWYLQKPGQSPQLLIFLGSNRASGVPDRFSGSGSGTDFTLKITRVEAEDVGIYYCMQSLQTPLTFGGGTKVEIKRTVAAPSVFIFPPSDEQLKSGTASVVCLLNNFYPREAKVQWKVDNALQSGNSQESVTEQDSKDSTYSLSSTLTLSKADYEKHKVYACEVTHQGLSSPVTKSFNRGEC
Consider B5, for which, in test [10], the “EC50, primary NK cell ADCC on ICOS-transfected CCRF-CEM cells, 4 h, Donor 4” value was found to be 0.00392 nM; the “EC50, primary NK cell ADCC on ICOS-transfected CCRF-CEM cells, 4 h, Donor 5” value was found to be 0.00395 nM; the “EC50, primary NK cell ADCC on ICOS-transfected CCRF-CEM cells, 4 h, Donor 6” value was 0.00375 nM. Besides, in test [11], the “EC50, primary NK cell ADCC on MJ cells, 2 h, Donor 1” value (“EC50, primary NK cell ADCC … Donor 1” below) amounted to 0.121 nM; the “EC50, primary NK cell ADCC on MJ cells, 2 h, Donor 2” value (“EC50, primary NK cell ADCC … Donor 2” below) was found to be 0.529 nM; the “EC50, primary NK cell ADCC on MJ cells, 2 h, Donor 3” value stood at 2.92 nM. Besides, in test [12], the “EC50, primary NK cell ADCC … Donor 1” value amounted to 0.121 nM and the “EC50, primary NK cell ADCC … Donor 2” value was determined as 0.529 nM.

B6: STIM009 as screened from BCT (mouse IgG1 constant region) (antibody, V domains shown)
VH: QVQLVESGGGLVKPGGSLRLSCAASGFTFSDYYMSWIRQAPGKGLEWVSYISSSGSTIYYADSVKGRFTISRDNAKNSLYLQINSLRAEDTAVYYCARDFYDILTDSPYFYYGVDVWGQGTTVTVSS
VL: not shown
notes: as m28
As to B6, the “fold above average geomean of hybrid control” value in test [6] and in test [7] was > 4 fold each time.

B7: STIM005 as screened from BCT (mouse IgG1 constant region) (antibody, V domains shown)
VH: QVQLVQSGAEVKKPGASVKVSCKASGYTFNSYGIIWVRQAPGQGLEWMGWISVHNGNTNCAQKLQGRVTMTTDTSTSTAYMELRSLRTDDTAVYYCARAGYDILTDFSDAFDIWGHGTMVTVSS
VL: DIQMTQSPSSLSASVGDRVTITCRASQNINNFLNWYQQKEGKGPKLLIYAASSLQRGIPSTFSGSGSGTDFTLTISSLQPEDFATYICQQSYGIPWVGQGTKVEIK
notes: as m28
B7: the “fold above average geomean of negative control (HTK888)” value (“fold above average geomean … (HTK888)” below) in [6] and in test [7] was > 4 fold each time.

B8: CL-74570 (IgG1 format) (antibody, V domains shown)
VH: EVQLVESGGGVIRPGGSLRLSCAASGFTFDDYGMSWVRQAPGKGLEWVSGINWIGDNTDYADSVKGRFTISRDNAKNSLYLQMNSLRAEDTALYYCARDYFGSGSYYNVPF
VL: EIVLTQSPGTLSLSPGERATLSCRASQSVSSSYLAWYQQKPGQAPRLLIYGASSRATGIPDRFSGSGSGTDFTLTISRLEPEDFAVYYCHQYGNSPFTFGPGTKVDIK
notes: as for B3
As to B8, the “fold above average geomean of negative control” value in [8] and in test [9] was > 10 fold in each case.

B9: STIM003 as screened from BCT (mouse IgG1 constant region) (antibody, V domains shown)
VH: EVQLVESGGGVVRPGGSLRLSCVASGVTFDDYGMSWVRQAPGKGLEWVSGINWNGGDTDYSDSVKGRFTISRDNAKNSLYLQMNSLRAEDTALYYCARDFYGSGSYYHVPFDYWGQGILVTVSS
VL: EIVLTQSPGTLSLSPGERATLSCRASQSVSRSYLAWYQQKRGQAPRLLIYGASSRATGIPDRFSGDGSGTDFTLSISRLEPEDFAVYYCHQYDMSPFTFGPGTKVDIK
notes: as m28
In the case of B9, the “fold above average geomean … (HTK888)” value in test [6] and in test [7] was > 4 fold in each case.

B10: STIM004 as screened from BCT (mouse IgG1 constant region) (antibody, V domains shown)
VH: EVQLVESGGGVVRPGGSLRLSCAASGLTFDDYGMSWVRQVPGKGLEWVSGINWNGDNTDYADSVKGRFTISRDNAKNSLYLQMNSLRAEDTALYYCARDYYGSGSYYNVPFDYWGQGTLVTVSS
VL: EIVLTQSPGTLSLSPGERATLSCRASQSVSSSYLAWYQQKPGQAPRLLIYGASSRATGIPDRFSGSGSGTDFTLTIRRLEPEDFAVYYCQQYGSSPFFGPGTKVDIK
notes: as m28
For B10, the “fold above average geomean … (HTK888)” value in test [6] and in [7] was > 4 fold throughout.

B11: STIM003 human IgG1 (antibody)
heavy: not shown
light: EIVLTQSPGTLSLSPGERATLSCRASQSVSRSYLAWYQQKRGQAPRLLIYGASSRATGIPDRFSGDGSGTDFTLSISRLEPEDFAVYYCHQYDMSPFTFGPGTKVDIKRTVAAPSVFIFPPSDEQLKSGTASVVCLLNNFYPREAKVQWKVDNALQSGNSQESVTEQDSKDSTYSLSSTLTLSKADYEKHKVYACEVTHQGLSSPVTKSFNRGEC
Consider B11, for which, in test [10], the “EC50, primary NK cell ADCC on ICOS-transfected CCRF-CEM cells, 4 h, Donor 4” value is ~0.003 nM; the “EC50, primary NK cell ADCC on ICOS-transfected CCRF-CEM cells, 4 h, Donor 5” value was determined as 0.000895 nM; the “EC50, primary NK cell ADCC on ICOS-transfected CCRF-CEM cells, 4 h, Donor 6” value worked out at 0.00103 nM. Moreover, in test [11], the “EC50, primary NK cell ADCC … Donor 1” value amounted to 0.00233 nM; the “EC50, primary NK cell ADCC … Donor 2” value was 0.0358 nM; the “EC50, primary NK cell ADCC on MJ cells, 2 h, Donor 3” value came out at 0.101 nM.
